Usually Kd stands for the constant that tells how readily two partners part at equilibrium.

Like-named read-outs stand apart in the source and are kept apart here.

Test [1] has as its target T1, recombinant protein consisting of the extracellular domain of human TREM2 fused to the His tag (human, UniProt Q9NZC2 19-174).
T1 construct: also called His tagged hTREM2; His-TREM2
T1 sequence: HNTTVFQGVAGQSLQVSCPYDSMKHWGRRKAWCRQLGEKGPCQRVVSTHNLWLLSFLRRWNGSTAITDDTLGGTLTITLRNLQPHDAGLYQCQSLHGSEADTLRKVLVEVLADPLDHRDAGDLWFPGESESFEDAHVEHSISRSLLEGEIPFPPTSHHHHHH
The experiment in a line: direct ELISA. How it is done:
(§1) Ninety six-Well ELISA microplate was coated with 0.5 μg/mL, 100 μl/well His tagged hTREM2 diluted in PBS pH 7.4, and incubated at 4° C. overnight. The plate was rinsed three times with 0.05% tween20 in PBS, blocked with 1% BSA in PBS at room temperature (RT) for 1 hr, and rinsed again. The plates was incubated with the anti hTREM2 antibodies (100 μl/well) for 2 hrs at indicated concentration, at RT. Plate was rinsed and incubated with Peroxidase-AffiniPure Goat anti Mouse IgG, Fcg fragment specific (min X Hu, Bov, Hrs, Sr Prot; Jackson ImmunoResearch) for 20 min at RT. The plate was rinsed and incubated with TMB Reagent (TM4500, Scytek) for 20 min at RT, followed by the addition of Stop Solution 2N Sulfuric Acid (DY994, R&D). OD was measured using an ELISA plate reader at dual wavelengths (450 nm and 570 nm)
For orientation: In an ELISA, binding on a coated surface is turned into a signal by an enzyme label.

Test [2] addresses T1, recombinant protein consisting of the …. As to the kind of experiment: direct ELISA, coated His-TREM2 0.5 ug/mL, Ab stock 1 mg/mL. How it is done:
as §1

The target of test [3] is T2, recombinant protein consisting of the extracellular domain of human TREM2 fused to the His tag (UniProt Q9NZC2 19-174).
T2 chain: T1 sequence
The experiment in a line: SPR.

The target in test [4] is T1, recombinant protein consisting of the …. As to the kind of experiment: direct ELISA; highest dilution with S/B >= 2.1. How it is done: as §1
(§2) Purity is measured by SDS-PAGE. Quantity of endotoxin (EU/mg) is measured by LAL assay. Titer measured by direct ELISA, while the title value is the highest dilution with S/B (Signal/Blank) >= 2.1

The target of another test is T3, soluble TREM2 protein (human, UniProt Q9NZC2 19-157).
T3 construct: also called TREM2 in cell culture supernatant (Sup)
T3 sequence: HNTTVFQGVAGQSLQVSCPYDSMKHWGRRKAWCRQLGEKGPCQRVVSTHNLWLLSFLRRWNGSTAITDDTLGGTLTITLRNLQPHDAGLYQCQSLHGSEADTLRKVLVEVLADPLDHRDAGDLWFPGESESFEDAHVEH
The experiment in a line: sup ELISA, hTREM2 vs WT 293HEK supernatant. As to the method: Supernatant was collected, centrifuged for 5 min at 900 g and filtered (0.45 μm). Ninety six-well ELISA microplate was coated with 0.2 μg/well of anti human TREM2 Antibody (AF1828, R&D) diluted in PBS, and incubated at 4° C. overnight. The plate was rinsed three times with 0.05% tween20 in PBS, blocked with 1% BSA in PBS at room temperature (RT) for 1 hr, and rinsed again. The plates was incubated with the cell culture supernatant (100 μl/well) for 2 hrs at RT for and rinsed again. The plate was incubated with 0.1 μg biotinylayed anti hTREM2 antibodies for 2 hrs at RT. After incubation, the plate was rinsed and incubated with streptavidin-HRP (DY998, R&D) for 20 min at RT. The plate was rinsed and incubated with TMB Reagent (TM4500, Scytek) for 20 min at RT, followed by the addition of Stop Solution 2N Sulfuric Acid (DY994, R&D). OD was measured using an ELISA plate reader at dual wavelengths (450 nm and 570 nm)
(§3) A. Cells culture supernatant (Sup) was used for soluble TREM2 protein binding capability test of 18 hybridoma derived monoclonal antibodies by direct ELISA. B. Cells were captured in 96 wells plate and were used for cell based ELISA of 18 hybridoma derived monoclonal antibodies. OD values positive cells (hTREM2 expressing HEK293) and negative cells (WT HEK293) are showing in the table.

The target of test [5] is T1, recombinant protein consisting of the …. The experiment in a line: direct ELISA; highest dilution with S/B >= 2.1. As to the method:
as §1, §2
The source holds these as a separate data set.

For test [6], the target named is T4, human TREM2 (hTREM2) on cells (human, UniProt Q9NZC2 19-230).
T4 construct: also called hTREM2 expressing HEK293
T4 sequence: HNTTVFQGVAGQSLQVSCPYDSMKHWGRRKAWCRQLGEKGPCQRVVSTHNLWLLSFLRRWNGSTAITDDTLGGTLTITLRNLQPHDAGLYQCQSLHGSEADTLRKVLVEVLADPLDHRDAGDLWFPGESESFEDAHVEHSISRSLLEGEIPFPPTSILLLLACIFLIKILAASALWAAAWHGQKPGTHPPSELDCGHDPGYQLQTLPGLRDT
The experiment in a line: cell-based ELISA, hTREM2 vs WT 293HEK cells. As to the method:
Cells were washed three times with PBS and blocked (5% FBS, 1% BSA in PBS) for 2 hrs at RT. Cells were washed with 1% BSA in PBS and were incubated with 0.1 ug (or indicated amount) obiotinylayed anti hTREM2 antibodies for 4 hrs at RT. After incubation, cells were incubated with streptavidin-HRP (DY998, R&D) for 20 min at RT. The cells were washed and incubated with TMB Reagent (TM4500, Scytek) for 30 min at RT, followed by the addition of Stop Solution 2N Sulfuric Acid (DY994, R&D). OD was measured using an ELISA plate reader at dual wavelengths (450 nm and 570 nm). Biotinylation of Antibodies was done using EZ-Link™ Sulfo-NHS-LC-Biotinylation kit (Thermo Fisher Scientific) according to manufacturer's instructions.
as §3

In test [7] the target is T4, human TREM2 (hTREM2) on cells. As to the kind of experiment: flow cytometry on BMDM. As to the method:
TREM2 KO and hTREM2 BMDM were washed with MACS buffer (PBS pH 7.2, 0.5% BSA and 2 mM EDTA) and stained with biotin conjugated anti hTREM2 antibodies (10 μg/mL) followed by Washing with MACS buffer and APC-streptavidin (Biolegend, 405207) incubation, then analyzed by flow cytometer (LSRII, BD).

B1: 54H2C1 (antibody, V domains shown)
VH: QVQLQQPGAEPLTPGASVKMSCEASGYTFTNFWITWVKLRPGQGLEWIGDIYPGSGNTNYNEKFKSRATLTVDTSSTTAYMQLSSLTSEDSAVYYCAREAYYTNPGFAYWGHGTLVTVSA
VL: DVLMTQSPLSLPVNLGDQASISCKSSQNIVHSNGNTYLEWYLQRPGQSPKLLIYKVSNRFSGVPDRFSGSGSGTDFTLKISRVEAEDLGLYYCFQGSHVPYTFGGGTKLEIK
notes: Biotin conjugated in sup ELISA, cell-based ELISA and flow cytometry
B1: in test [1], the “direct ELISA positive/negative” value came out at 33.9 ratio. Also, in test [2], the “OD at dilution 1000” value came to 1.4 OD, the “OD at dilution 3000” value was 1.35 OD, the “OD at dilution 9000” value amounted to 1.18 OD and the “OD at dilution 27000” value worked out at 0.967 OD. In addition, in test [2], the “OD at dilution 81000” value turned out to be 0.586 OD, the “OD at dilution 243000” value turned out to be 0.276 OD, the “OD at dilution 729000” value worked out at 0.147 OD and the “OD at dilution 2187000” value was determined as 0.106 OD. Further, in test [2], the “OD at dilution 6561000” value was 0.087 OD and the “OD at dilution 19683000” value worked out at 0.069 OD. Besides, the Kd in test [3] turned out to be 0.399 nM. In addition, the Titer in test [4] is 729000 dilution. Further, in the test with soluble TREM2 protein, the “sup ELISA positive/negative (293HEK)” value turned out to be 25.1 ratio. In addition, the Titer in test [5] was 729000 dilution. The “Cell based ELISA positive/negative” value in test [6] was 2.69 ratio. Besides, the “FACS positive/negative BMDM” value in test [7] was determined as 2.72 ratio.

Values taken from patent US20240239886A1 (YEDA RESEARCH AND DEVELOPMENT, published 2024).
